From publication PMC3854711, “Handling Uncertainty in Dynamic Models: The Pentose Phosphate Pathway in Trypanosoma brucei” (PLoS Computational Biology, 2013) come the findings set out here.

The Km is the substrate concentration at which the rate is half of its maximum.

Substrate in data set [1]: Nc1ncnc2c1ncn2[C@@H]1O[C@H](COP(=O)(O)OP(=O)(O)OP(=O)(O)O)[C@@H](O)[C@H]1O
The data set can be described thus: coupled spectrophotometric assay (PK/LDH, NADH). It counts as biochemical, Trypanosoma brucei. The settings on record: ribose co-substrate (5 mM), 10 mM MgCl2, pH 7, 25°C, ribose 5-phosphate production direction. The source says:
coupled spectrophotometric assay (PK/LDH, NADH) on T. brucei ribokinase | enzyme kinetics of heterologously expressed T. brucei ribokinase were characterized

Substrate in data set [2]: Nc1ncnc2c1ncn2[C@@H]1O[C@H](COP(=O)(O)OP(=O)(O)O)[C@@H](O)[C@H]1O
The data set can be described thus: coupled spectrophotometric assay (HXK/G6PDH, NADP). It counts as biochemical, Trypanosoma brucei. Conditions: ribose 5-phosphate co-substrate (5 mM), 10 mM MgCl2, pH 7, 25°C, reverse direction, ribose production. From the text: coupled spectrophotometric assay (HXK/G6PDH, NADP) on T. brucei ribokinase | the enzyme could indeed work in the ribose production direction

B1: T. brucei ribokinase (Trypanosoma brucei brucei TREU927) (protein)
chain: MSAAGVKSGNGCIADTPIVVVGACFVDYVAYVDHLPQVGESLRCRSFSKGFGGKGSNQAVCAGRLGASVSMVGAVGTDGDGADYIANFQRNGVQVSNVYRMENTSTGLAMIFVDSTTSHNEIVFSPNATGALTVDYLRKQSDNYNNFFGPKCRYIILQNEIPVETTLDVLKEAHTRGIYTVFNAAPAPSADEVAVVKPFLSYVSLFCVNEVEASMITGIDVKDTQSAILATEEMQKLGAHSVVTTLGGNGYVIGEKGKPPRHLPSITVKAVDSTGAGDCFVGAMVFYLSMGKSLEESCKRANMIAAISVQRPGTQSSYPTLDELPAEVKECKI
notes: N-terminal His-tag from pET28a(+), expressed in E. coli BL21(DE3), Ni chelate purified
For the protein B1, the Km is 240 µM in data set [1] and 250 µM in data set [2].
